The test has as its target SARS-CoV nsp10 (SARS-CoV Frankfurt-1). Put plainly: pull-down.

In the case of SARS-CoV nsp16 (enzyme), the % associated is 100%.
